Measured values taken from article PMC11162469, “Discovery of RXFP2 genetic association in resistant hypertensive men and RXFP2 antagonists for the treatment of resistant hypertension” (Scientific Reports, 2024).

B1: 3F1: RXFP2 monoclonal antibody from hybridoma, recombinantly expressed in a rat IgG2b backbone (antibody, V domains shown)
VH: QVQLKESGPGLVAPSQSLSITCTVSGFSLTDYGVSWIRQPPGKGLEWLGVIWGGGSTDYNPALKSRLSISKDNSKSQVFLKMNSLQADDTAMYYCVKHEGYYAMDYWGQGTSVTVSS
VL: DIQMTQSPASLSVSVGETVTITCRASENIYSNLAWYQQKQGKSPHLLVYAVTNLADGVPSRFSGSGSGTQYSLKINSLQSEDFGSYYCQHFWGTPYTFGGGTKLEIK
B2: 4A5: RXFP2 monoclonal antibody from hybridoma, recombinantly expressed in a rat IgG2b backbone (antibody, V domains shown)
VH: DVQLVESGGGLVQPGGSRKLSCAASGFTFSTFGMHWVRQAPEKGLEWVAYISSGSSTIYYADTVKGRFTISRDNPKNTLFLQMTSLRSDDTAMYYCSRSYYGSAHYFDYWGQGTTLTVSS
VL: DIQMTQSPASLSVSVGETVTITCRASENIYSNLAWYQQKQGKSPQLLVYVATNLADGVPSRFSGSGSGTQYSLRINNLQSEDFGNYYCQHFWGTPPTFGGGTKLEIK
B3: 3H1: RXFP2 monoclonal antibody from hybridoma, recombinantly expressed in a rat IgG2b backbone (antibody, V domains shown)
VH: QVQLKETGPGLVAPSQSLSITCTVSGFSLTNYGVNWVRQPPGKGLEWLVVIWSDGSTNYNSALKSRLSISKDNSKSQVFLKMNSLQTDDTAMYYCARQQGYYAMDYWGQGTSVIVSS
VL: DIQMTQSPASLSVSVGETVTITCRASENIYSNLAWYQQKQGKSPQLLVYAVTNLADGVPSRFSGSGSGTQYSLKINSLQSEDFGSYYCQHFWGPPYTFGGGTKLEIK
B4: 4H2: RXFP2 monoclonal antibody from hybridoma, recombinantly expressed in a rat IgG2b backbone (antibody, V domains shown)
VH: QVQLRQSGPSLVQPSQSLSITCTVSGFSLTNYGVHWVRQSPGKGLEWLGVIWRGGNTDHNAAFMSRLSITKDNSESQVFFKMNSLQVDDTAIYYCAKAEGYYALDYWGQGTSVTVYS
VL: DIQMTQSPASLSVSVGETVTITCRASENIYSNLAWYQQKQGKSPQLLVYAVTNLADGVPSRFSGSGSGTQYSLKINSLQSEDFGSYYCQHFWGTPWTFGGGTKLEIK
B5: 4B8: RXFP2 monoclonal antibody from hybridoma, recombinantly expressed in a rat IgG2b backbone (antibody, V domains shown)
VH: QVQLKQSGPGLVQPSQSLSITCTVSGFSLSRYGVHWVRQSPGKGLEWLGVIWSGGSTEYNAVFKSRLSISKDNSKSQVFFKMNSLQANDTAIYYCVRADGYYAMEYWGQGTSVTVSS
VL: DIQMTQSPASLSVSVGETVTITCRASENIYSNLAWYQQKQGKSPQLLVYAVTNLADGVPSRFSGSGSGTQYSLKINSLQSEDFGNYYCQHFWGTPYTFGGGTKLEIK
B6: 3G4: RXFP2 monoclonal antibody from hybridoma, recombinantly expressed in a rat IgG2b backbone (antibody, V domains shown)
VH: QVQLKESGPGLVAPSQSLSITCTVSGFSLTSYGVSWVRQPPGKGLEWLGVIWGDGSTNYHSALISRLSISKDNSKSQVFLKLNSLQTDDTATYYCAKSLGYYAMDYWGQGTSVTVSS
VL: DIQMTQSPASLSVSVGETVTITCRASENIYSNLVWYQQKQGKSPQLLVYAATNLAEGVPSRFSGSGSGTQYSLKINSLQSEDFGSYYCQHFWGPPWTFGGGTKLEIK
B7: 4H5: RXFP2 monoclonal antibody from hybridoma, recombinantly expressed in a rat IgG2b backbone (antibody, V domains shown)
VH: QVQLKQSGPGLVQPSQSLSITCTVSGFSLTNYGVHWVRQSPGKGLEWLGVIWRDGNTDYNAAFMSRLSITKDNSKSQVFFEMNSLQVDDTAIYYCCRGDGYYAMGYWGQGTSVTVSS
VL: DIQMTQSPASLSVSVGETVTITCRASENIYSNLAWYQQRQGRSPQLLVYAATNLADGVPSRFSGSGSGTQYSLKINSLQSEDFGNYYCQHFWGSPRTFGGGTKLEIK
B8: 4H1: RXFP2 monoclonal antibody from hybridoma, recombinantly expressed in a rat IgG2b backbone (antibody, V domains shown)
VH: QIQLVQSGPELKKPGETVKISCKTSGYTFTKYPMHWVKQAPGEGLKWMGWINTYSGLPTFADDFKGRFAFSLETSANTADLQINNLKNEDMATYFCAREGKKLSGYFDYWGQGTTLTVSS
VL: DIKMTQSPSSMYASLGERVTITCKASQDINSYLTWFQQKPGQSPKTLIYRANRFVDGVPSRFSGSGSGQDYSLTITSLEYEDMGIYYCLQYDEFPYTFGGGTQLEIK
B9: 1G1: RXFP2 monoclonal antibody from hybridoma, recombinantly expressed in a rat IgG2b backbone (antibody, V domains shown)
VH: EVQLQQSGPELVKPGASVKMSCKASGYTFTDYNMHWVKQKPGQGLEWIGYINPYNDGTEYNEKFKGKATLTSDKSSSTAYMDLSSLTSEDSAVYYCARGLWFAMNYWGQGTSVTVSS
VL: DIQMTQSSSSFSVSLGDRVTITCKASEDIYNRLAWYQQKPGNTPRLLISGATILETGVPSRFSGSGSGKDYTLSIISLQTEDVATYYCQQYWIIPPTFGGGTKLEIK
B10: 3F3: RXFP2 monoclonal antibody from hybridoma, recombinantly expressed in a rat IgG2b backbone (antibody, V domains shown)
VH: QVQLQQPGSVLVRPGASVKLSCKASGYIFTSYWMHWVKQRPGQGLEWIGEIYPNSGRTSYNEKFKGKATVTVDTSSSTAYVDLSSLTSEDSAVYYCASGGHWFAYWGQGTLVTVSA
VL: DIQMTQSSSSFSVSLGDRVTITCKASEDIYNRLAWYQQKPGNAPRLLISGATSLEAGVPSRFSGSGSGKDYTLSITSLQTEDVSTYYCQQYWITPYTFGGGTKLEIK

Legend:
rat RXFP2 [1] = target: T1, rat RXFP2 (Rattus norvegicus, UniProt F7EMH8); assay: INSL3-stimulated CYP11B2 mRNA expression in H295R stably expressing rat RXFP2; type: cell-based; design: expressed in transfected cells; conditions: INSL3 EC80 (3.5 nM), 48 h, qPCR; N = 2
T1 sequence (F7EMH8 20-737): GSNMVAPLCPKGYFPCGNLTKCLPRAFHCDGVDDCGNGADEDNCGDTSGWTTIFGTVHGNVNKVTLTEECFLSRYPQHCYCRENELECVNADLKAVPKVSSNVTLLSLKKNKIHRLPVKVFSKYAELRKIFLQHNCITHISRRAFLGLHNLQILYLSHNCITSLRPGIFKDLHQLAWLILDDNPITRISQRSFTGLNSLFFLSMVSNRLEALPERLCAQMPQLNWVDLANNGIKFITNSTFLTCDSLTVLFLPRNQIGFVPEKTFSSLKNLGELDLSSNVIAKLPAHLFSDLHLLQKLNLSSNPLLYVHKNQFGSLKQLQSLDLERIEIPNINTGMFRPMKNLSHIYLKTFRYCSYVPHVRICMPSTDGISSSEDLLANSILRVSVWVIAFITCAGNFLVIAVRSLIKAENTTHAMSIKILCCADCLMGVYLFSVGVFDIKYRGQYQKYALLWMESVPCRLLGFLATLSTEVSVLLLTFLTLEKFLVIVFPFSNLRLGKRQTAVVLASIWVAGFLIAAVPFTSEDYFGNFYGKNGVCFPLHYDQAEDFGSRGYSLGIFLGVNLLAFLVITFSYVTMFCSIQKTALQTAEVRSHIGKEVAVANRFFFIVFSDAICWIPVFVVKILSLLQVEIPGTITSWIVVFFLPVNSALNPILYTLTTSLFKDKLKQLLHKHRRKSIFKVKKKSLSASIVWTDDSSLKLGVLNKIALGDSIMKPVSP
Method: (§1) RXFP2 antagonists were added to H295R-rRXFP2 before addition of INSL3 EC80 (3.5 nM) for 48 h, whereupon the cells and supernatants were collected. CYP11B1 and CYP11B2 mRNA were determined by qPCR and the RXFP2 blocker potencies were calculated (Fig. 5a). Fifteen antibodies have IC50s < 50 nM, and three of the top antibodies (1F2, 4G6, and 2D4) were selected for evaluation in steroid hormone secretion assays by ELISA.
(§2) Data entered as XY table, with x = [Inhibitor] (nM) and y = CYP11B2 or CYP11B1 fold change.

human RXFP2 = human RXFP2 (Homo sapiens, UniProt Q8WXD0); assay: INSL3-stimulated cAMP assay in HEK293 stably expressing human RXFP2; conditions: read-out: HEK293-human RXFP2 cAMP IC50; INSL3 EC80-stimulated cAMP, stable expression; N = 2
Sequence of human RXFP2 (Q8WXD0 whole entry): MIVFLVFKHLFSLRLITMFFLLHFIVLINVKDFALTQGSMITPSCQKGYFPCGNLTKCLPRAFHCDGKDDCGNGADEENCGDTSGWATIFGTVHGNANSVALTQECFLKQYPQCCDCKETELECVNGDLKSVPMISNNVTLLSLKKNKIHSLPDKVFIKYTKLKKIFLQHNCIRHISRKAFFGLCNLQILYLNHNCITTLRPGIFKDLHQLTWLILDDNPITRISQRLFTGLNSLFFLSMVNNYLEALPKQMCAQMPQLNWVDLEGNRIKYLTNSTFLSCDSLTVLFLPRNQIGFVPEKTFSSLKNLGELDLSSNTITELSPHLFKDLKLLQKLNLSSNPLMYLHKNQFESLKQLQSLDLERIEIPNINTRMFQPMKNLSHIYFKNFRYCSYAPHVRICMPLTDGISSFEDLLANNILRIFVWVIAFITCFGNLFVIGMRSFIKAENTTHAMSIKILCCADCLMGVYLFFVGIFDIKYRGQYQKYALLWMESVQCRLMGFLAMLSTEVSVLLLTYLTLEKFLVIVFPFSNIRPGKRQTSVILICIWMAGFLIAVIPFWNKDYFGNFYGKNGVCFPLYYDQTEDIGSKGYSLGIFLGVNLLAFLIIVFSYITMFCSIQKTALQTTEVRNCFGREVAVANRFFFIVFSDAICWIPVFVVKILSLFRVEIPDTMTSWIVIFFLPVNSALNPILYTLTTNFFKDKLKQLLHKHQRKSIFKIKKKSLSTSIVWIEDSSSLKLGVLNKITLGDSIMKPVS

rat RXFP2 [2] = target: T1, rat RXFP2; assay: INSL3-stimulated cAMP assay in HEK293 stably expressing rat RXFP2; conditions: INSL3 EC80-stimulated cAMP, stable expression, N = 2; for IC50: read-out: HEK293-rat RXFP2 cAMP IC50;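 on all read-outs here: cAMP measured with an HitHunter kit in 384-well plates, 11-point dose–response curves up to 1 µM antibody, four-parameter variable-slope fit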
rat RXFP2 [3] = target: T1, rat RXFP2; assay: INSL3-stimulated CYP11B1 mRNA expression in H295R stably expressing rat RXFP2; type: cell-based; design: expressed in transfected cells; conditions: INSL3 EC80 (3.5 nM), 48 h, qPCR; N = 2
Method: as §1, §2

[4] = Pharmacokinetic study of RXFP2 mAbs in rat; type: in vivo, Wistar Han rats; conditions: for half-life, extrapolated values: Wistar Han rats, 1 mg/kg sc., over 28 days; for AUClast / Cmax / Tmax: male Wistar Han rats, 1 mg/kg s.c., n = 3, mean ± SD
Method: For the pharmacokinetic study of RXFP2 mAbs in rat, 1G1, 2D4, 4B1, 4G6, 1F2, and 3F3 were prepared in phosphate buffered saline (0.100 mg/mL) with low endotoxin (≤ 0.76 EU/mL). Adult male Wistar Han rats (n = 3/mAb) were administered 1 mg/kg subcutaneously (10 mL/kg). Blood samples (100 µL) were collected in EDTA containing tubes at 0.25, 3, 6 24, 48, 96, 168 (day 7), 336 (day 14), 504 (day 21), and 672 (day 28) hours post dose, immediately centrifuged (6100 rpm), and 50 µL plasma stored at − 80 °C until assay. Rats maintained health throughout the study and were anesthetized (isoflurane to effect) and euthanized on day 28.
Frozen rat plasma samples were thawed and analyzed using a qualified analytical method based on sample dilution, followed by Electrochemiluminescence immunoassay analysis. The lower limit of quantification (LLQ) was 0.1 µg/mL using a 10 µL aliquot of 51-fold diluted rat plasma with a higher limit of quantification (HLQ) of 10 µg/mL. RXFP2 mAbs were captured with LDLa protein and detected with sulfo-tag labeled mouse anti-rat IgG2b. The computer systems that were used to acquire and quantify data included Gyrolab Workstation Version 8.1.5 and Watson LIMS version 7.6.1. Rat pharmacokinetic parameters were calculated by non-compartmental analysis (NCA) analysis using WinNonlin Phoenix 64 (version 8.3). Values are reported in mean ± standard deviation.

Row | Molecule | IC50 (rat RXFP2 [1]) | IC50 (human RXFP2) | HEK293-rat RXFP2 cAMP % Max Response (rat RXFP2 [2]) | IC50 (rat RXFP2 [2]) | IC50 (rat RXFP2 [3]) | half-life, extrapolated values [4] | estimated dose to achieve tenfold higher IC50 HEK-rRXFP2 cAMP activity for approximately 28 days in rat ([4]; from trough concentration, dose-linearity assumed) | AUClast [4] | Cmax [4] | Tmax [4]
1 | B1 | 0.23 nM | ~589 nM | 69.7% | 19.9 nM | 0.27 nM |  |  |  |  | 
2 | B2 | 0.31 nM |  | 91.0% | 23.2 nM | 2.85 nM |  |  |  |  | 
3 | B3 | 0.16 nM |  | 71.6% | 15.8 nM | 0.33 nM |  |  |  |  | 
4 | B4 | 0.13 nM |  | 85.7% | 18.9 nM | 0.26 nM |  |  |  |  | 
5 | B5 | 0.17 nM | ~116 nM | 86.6% | 21.4 nM | 0.23 nM |  |  |  |  | 
6 | B6 | 0.2 nM |  | 83.3% | 16.1 nM | 0.33 nM |  |  |  |  | 
7 | B7 | 0.15 nM |  | 89.2% | 14.2 nM | 0.21 nM |  |  |  |  | 
8 | B8 |  | ~218 nM | 69.7% | 150 nM |  |  |  |  |  | 
9 | B9 | 0.17 nM |  | 87.2% | 28 nM | 0.27 nM | ≥ 264 h | approximately 10 mg/kg | 4490 ± 467 µg·h/mL | 9.82 ± 0.766 µg/mL | 120 ± 42 h
10 | B10 | 0.51 nM |  | 78.5% | 37 nM | 3.85 nM | ≥ 264 h |  | 987 ± 200 µg·h/mL | 2.35 ± 0.858 µg/mL | 168 ± 0 h
